Measured values as given in paper doi:10.1101/2021.01.08.425994 (bioRxiv, 2021).

Molecular target: T1, His-tagged mouse CRY2 D325H PHR domain (residues 1-512) (mouse, UniProt Q9R194 1-512, D325H)
T1 sequence (looked up): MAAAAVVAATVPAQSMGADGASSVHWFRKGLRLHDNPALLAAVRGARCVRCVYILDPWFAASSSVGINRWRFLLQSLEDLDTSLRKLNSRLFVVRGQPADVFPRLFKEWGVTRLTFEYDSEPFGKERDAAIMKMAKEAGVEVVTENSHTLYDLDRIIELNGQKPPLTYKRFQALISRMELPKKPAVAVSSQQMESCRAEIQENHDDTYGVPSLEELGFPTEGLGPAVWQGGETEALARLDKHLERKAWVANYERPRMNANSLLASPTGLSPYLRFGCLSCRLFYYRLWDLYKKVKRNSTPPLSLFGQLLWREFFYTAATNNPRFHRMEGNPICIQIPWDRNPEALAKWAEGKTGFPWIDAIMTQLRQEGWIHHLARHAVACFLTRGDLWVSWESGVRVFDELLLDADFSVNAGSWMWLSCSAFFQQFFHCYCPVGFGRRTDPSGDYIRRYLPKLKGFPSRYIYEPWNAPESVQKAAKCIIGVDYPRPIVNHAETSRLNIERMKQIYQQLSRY
Assay: BLI

B1: CLOCK:BMAL1 PAS domain core (PAS-AB domain heterodimer), biotinylated (complex)
chain 1: ASEIRQDWKPTFLSNEEFTQLMLEALDGFFLAIMTDGSIIYVSESVTSLLEHLPSDLVDQSIFNFIPEGEHSEVYKILSTHLLESDSLTPEYLKSKNQLEFCCHMLRGTIDPKEPSTYEYVRFIGNFKSLTSVSTSTHNGFEGTIQRTHRPSYEDRVCFVATVRLATPQFIKEMCTVEEPNEEFTSRHSLEWKFLFLDHRAPPIIGYLPFEVLGTSGYDYYHVDDLENLAKCHEHLMQYGKGKSCYYRFLTKGQQWIWLQTHYYITYHQWNSRPEFIVCTHTVVSYAEVRAERRRELGIEESL
chain 2: not shown
- Kd: 1800 nM
